Measured values from a protein production outcome set (Wang et al. 2014).

Experiment: label from the status in PepcDB records

MAQPERFGRYRVLRRLGSGSFATVWLGHDDLLDTPVAIKVLAENWAHNLDIHQRFVEEARILRQADSEWLVRVHDIGTLPDDRPYFVMTYADRGSVADRIAQGPLPLDEALRLLTEIGQGVTVLHRHGTIHRDIKPSNVLLQSSPVGERVLVADLGFAKSIDGASGFTASAGTPGYMSPEQSVVGGDIDVRADVYSLGAVAYELVTGKRPPSPPVRVPPSRLRPGVPPALDELIMSALSPNRSDRPPDAATFTSRIREIRMSPDLELATPWWQRYRATWTRLVALVATAVAVLGVAPAASASPHLPMMEIYDASGELHVRVPTPWLRQMQLNGWSPRELGLPGGHEPGLLVATDLDAWSDARQSVSGLFAGLFVSDGQSPDLDRLISSGLCSGQPQRQRFTNAHWDGELWQWVDCSPDSSEGDVFTAAVLQHRGQERTLYLEIRQTEHQPQTVAEILDGLRLIS
protein production: failed

MSRDPILSLPWPDARPLPDTFFDRDALLVARELLGKVIRHRQGNLWLAARIIETEAYYLEEKGSHASLGYTEKRKALFLDGGHIYMYYARGGDSLNFSAGGPGNAVLIKSGHPWLDRISDHTALERMQSLNPDSQGRPREIGRLCAGQTLLCKAMGLKVPEWDAQRFDPQRLFVDDVGERPSQVIQAARLGIPKGRDEHLPYRFVDAAFAAFCTRNPLRRGQVAGRDYHLLGHQDPHLQ
protein production: failed

MTQQHLFPSTKAKSYKLFCFYLLILTSLLHPATAGAADITQQLHRPVNSSMGRQSRDEADSLLRVAEQQYAAGCADKAIDSGLQALDIYHLIGDLRAKGLTYNLLAKAYIELGRFKEGEDALRRRLAIARDTKDFQSQIFALNNLGTLLLQAGEPKAAGETIQEAYTIADNVKNIDGEGLSLSNLGLVSSRLGDYNKAIKLYETALIFRRRTGDAPGEMNTLNNLGDAYLAAGNYPDTIGTYGAAMRIAKTLGDRSNQLRAIDGLVTAHSAVGRYERAFDLLQQRLTIAQELQNLREELKSFESYAKLYEQLGNYPTARNFYERAIIISQTLEDNKQEVFLRDRLTQMLRSQKSILK
protein production: failed

NCRLFIGGIPKMKKREEILEEIAKVTEGVLDVIVYASAADKMKNRGFAFVEYESHRAAAMARRKLMPGRIQLWGHQIAVDWAEPEIDVDEDVMETV
protein production: not failed

MTIAILSTGDEIIHGDTLNTNAHYIAHALCSEGLPLGLQVACSDKENEIIDSLNFLTQHHDILILIGGLGPTKDDITRFALAKFTKEPLLQHADALDHIEKKANIAKISLNQGNLQQCLFPANARLFPNPYGTAMGCSYSWKGKVFILLPGPPRECLPMFNQDVLPLLLQTSRHSNK
protein production: not failed

MAGENFATPFHGHVGRGAFSDVYEPAEDTFLLLDALEAAAAELAGVEICLEVGSGSGVVSAFLASMIGPQALYMCTDINPEAAACTLETARCNKVHIQPVITDLVKGLLPRLTEKVDLLVFNPPYVVTPPQEVGSHGIEAAWAGGKNGREVMDRFFPLVPDLLSPKGLFYLVTIKENNPEEILKIMKTKGLQGTTALSRQAGQETLSVLKFTKS
protein production: failed

MLSRLDQRSGGRSPIRAVRTRNSAMRTSRRAIVAFVLGVSALAVPALAFEGAPVNQKDATIPVVTTLPGAAGAVRSKVSPATQETSLSALQYAAEGGHPIAQWKLGRMYANGDGVAQDDVRAFEYFSRIANAHAEDSPSAPQAQIVANAFVALGRYYLSGIPNSKIKPDQDRAREMFSYAASYFGNADAQYDLARLYLKTPDASREDFRYGARWLGLAAQKGQHEAQALLGQMLFNGDRLPRQAARGLMWLTLARDSAGSEETWIKESYNRAFAKASDDDRAMCLQMLEQWVQGRRE
protein production: failed

MSSPKISIIIPVYMAESYLHRCVDSIITQTFTDWELLLVDDGSPDHSGELCEKYASAYKSRIKAFHKPNGGVASAREFGMQQARGEYSIHVDPDDWIDSNTLEELYQQAVKEQADMVICDFMMEYPNRQIHNCQKPQLLDSSSFMHQLLQQERHGSLCNKLIRTELYHKYQLHFPEKMICWEDLYICCSILLHGCKLAYVPHALYHYDFYTNDNSMVRHTDMRGLQAQIDFCRLMQAKISPEYLPELNELKGITLITAFRNQLLNEQAIRSLFPEINDWYVTRYGHDYEKSNYYGLTLVLRGYNFKTARRRMFVAKFLVQIKNKITRMLLEHHHHHH
protein production: not failed

MRNVIAAVMASTLALSAYSQAAEVVTSVNWLPGDEGGQRGSQSHMFDGISLTEQQRQQLRDLMQRARHDRLPVNVSEMETMHRLVTAENFDENAVRAQAEKMAQEQVARQVEMAKVRNQMYHLLTPEQQAVLNAKHQQRMDQLREVARMQKGSAMMLSSSSNTLQPQ
protein production: failed

GSGKNLIMIQVEALQGFVVNKSINGKEITPNLNKWINKSLYFDNYFYQVAQGNTSDAEFMSLNSLYPAQSGAAYYTYAGNTFNSIPKDLGDKGYYTAALHGYNEGFWNRNVMYKSEKFDDFYGQTSYKNDEVVGMGLSDESFLNQSLAKMKTFKQPYFSFLITLSSHYPFNDTAGYEKYTMNKLDVGEYKDTLLGNYFEGIHYTDEQLGKFLDKLDKEGLTKNSIIVLYGDHFAIPKENINQLYSFEGIKDPTDLTWYEYQKVPMFIHFPDDEHKGVNHTYSGQMDIYPTIANLYNISNNYMFGEDILNVKDGDSTNVTFRNGSFTDGK
protein production: failed

MGHHHHHHSHMTLEEFSAGEQKTERMDKVGDALEEVLSKALSQRTITVGVYEAAKLLNVDPDNVVLCLLAADEDDDRDVALQIHFTLIQAFCCENDINILRVSNPGRLAELLLLETDAGPAASEGAEQPPDLHCVLVTNPHSSQWKDPALSQLICFCRESRYMDQWVPVINLPER
protein production: failed

GPYATEVELREMVDIAQEHGIVEIEERRMIQSVFDLASTTVRQVMVPRPEMIWIESGKTAGQATALCVRSGHSRIPVIGENVDDIIGIVYLKDLVQKTYYATDGGKSVLVDEVMREATFVPDSKSLDALLQEMQEDHKHIAILVDEYGGVAGLISIEDILEEIVGEIADEYDAREVAPIEKIGDRTYRVVSRL
protein production: not failed

MKSAPDWIAHPDTPYLLIDEAKLKSNINYLKQRVESLGSHLRPHLKTLRTLEAAGYLLDSKSAPATVSTLAEAEAYAKAGYTDLLYAVGIAPAKLKRVAALRQQGINLHILLDNITQAQAVVDYAAEFGQDFSVFIEIDSDDHRGGIKPSDSKLLTIAKTLGEHFTGLMTHAGGSYACNTEQGLKNFAKQECDAVRIARNNLETAGIHCAITSVGSTPTAHFGEDFSDISEVRAGVYTTFDLVMKNIGVCDFSHIAMSVVTTVIGHNKEKNWLLTDSGWMALSRDSGTAGQNRDFGYGQVCKIDGSVLDGLCVNSTSQEHGVIELSDAYQLEDFPVGHQLRIMPNHACATAAMHPVYHVLMSDGSHNTWQRITGW
protein production: not failed

MNYNSIPTEIIDTILAELKIGLTLVNNTGKIIYFNQLAGELLGWDNKLPENTILSCHKKENQPKVIEKLNQPAAMEWHKVIKTQNRFIENAYSPINIPDKFMGAMILTKDVTAREESLEKLKKNAETDALTGLYNRNLFHTVIQSYITESKPYGLIMLDISGLKYINDHFGHEEGDRILKEAAEAIRSSIRDTDFAFRFGGDEFLILTSYQEAVLKTIANRIRSKNKIPTENTPAVLNLSLGYATSLEEKNMEAVLSSADQRMYRDKQLFYLGDGKYFKQ
protein production: failed

MDSGFTLRAPRNDKRRNPMPAILGTGEHRYRVVENFAKLPDGWQLTDVAAVAVDSLDRVYVFNRGAHPMVVLDREGNFLRSWGEGLFSRAHGLHIDADDNLYCTDDGDHTVRKCTSDGKVLLTIGIPAKPAPFMSGEPFHRCTHTALSPKGEIYVSDGYGNARVHKFTPDGKLIKSWGEPGTDPGQFNIVHNIATDSDGWVYVADRENHRVQVFNGEGKYETQWNNLHRPCALCCCGGRSPTFVIGELGPGLDINRNVPNLGPRLSIVDAKGNRIARLGGEEGPGVASGKFLAPHGIALDSKGDIYVGEVGVTNWATSFPDQEMPAVVRATRCLQKLERVRELEHHHHHH
protein production: failed

DRTEERHAKGLRRQVDHRFDKLVGTISEGVLLMDDTGVFRDGNEAAQNILGRSLDEIIGSRFDDDIWNGLREDGSPLPNVEFPFWRAYVEREPVQEEVMGVYPPDAPPRWIRVNAQPLFRSGQEAPYAVLV
protein production: not failed

MNETEFYAYHIVTRKKMHIGQMIPFNKNQHNTLYHFFFEREQLNANGEDGIQILNNHYKNDELHINNENAKVVISYMDQTIRAARETIVEMVRLQEFPEYPSRLSCLYAAKSYEDALKWKALFDSYNREVLQIVKLRVIGSSFEGDGNLLPKEDGIPFSQKIEQARKYWKGNIRNELPELLINGEIEVVEIIDDFSSIHI
protein production: not failed

MPLPRVSPVPLAGPGRRGEGGVSSAPLAGGPWAAGRRRLPGLLIIFRRVFTVGFWVGGVLAKKYPFLLGLDRVLELVTGFRGEAARRVLAGDEDLVGLGFRRAVAAVEGWLDYPFADTVEGEVASFYLGLAIAYRAGPAAVSRVVAGEYLRASRLLAGEPGEVASGILGGLGFPVERGGLSVPWVVDRRGVVMLPLGWRMGVDVFLRLSAADESSPELRLANQMLLSGSVYLSDARLRALASAASRLAIESRVSEAASLESEAVERYARHLAALAEGGLPFIPEALPQCIKNVFAKAVGGERLGWLELYLALVFLARIRAGPDAVEELLTPSLGERVARLLARVYSQAPPADHQLPPCEVLAASGVCRCRGSLLSEYRRSVRSLLGLPDRGAGRR
protein production: failed

MGNYLLRKLSCLGENQKKPKKGNPDEERKRQEMTTFERKLQDQDKKSQEVSSTSNQENENGSGSEEVCYTVINHIPHQRSSLSSNDDGYENIDSLTRKVRQFRERSETEYALLRTSVSRPCSCTHEHDYEVVFPH
protein production: not failed

MGIGFKGRKTLLRELVKYMVTLCISLVVLALLYIFINTIAMNTGFSHPANYNEREAEKLAPKLETIDKVTADMIPDTMSYAILNKETKQKTAGTIKEKDLQLVKKKIEKKPYVNYKQKGYLVIERNNEYCVLQYSLRADFSSPLLRKYLPNYELTSICILIILLIIVISIITTYFANRLRKHFETLNVITRYIKEQNLQFTPEFTHIKEFDDVIDSLIEMRDALQSSLEALWRLEKNKKEQIGALAHEIKIPITIIKGNAELLSLSMQNEEQAEYTKYILGAGNQIEQYIYQLIHLSKTEDALTIHLEKASVDELTETLVKDISAYKGNKNINISFKKENLMKEAKIDWQLLHRALLNILTNAVDYTPEGGTVSVHAESILRYFIFL
protein production: failed

MSVPRPMEGRASGSARIYQAGGDQYIEEHVHHHAPGSAPLFGHPWTGPAEPREAAPDSVRMPLVGRAPRVLRDRTDLMERLRAAVAGPGSDIQVLHGMGGCGKTAVAQALFTEAVRDHGRVGLWVNASERVSLRAGMLAVAGDRGATAGELAAAAGGRRAAADLVWHYLDQSAQPWLLVLDNADDPAVLEEGSWLRPSPSGTVLVTTRHATSSLWRAPATSSHRLGVLPLEDATLVLRDLAPDAGTRESARKVARRLGCLPLALTLAGAHLAHQLLESWSMDEYDRKLTEESTALVDRGASATGGGQSRHLVGRTWQLSLDGLAERGLPEATALLRLLSCWAADPVPLSLLMPAAQGGVGLEHLDPPLAAPRVEPALRALLDHSLIEMVETDGHRCVKAHGVLLDSVAGSVPDAERALLAAAAGGLLRAALPPEGAASPRARSQVRLLAPHATGLLHRSHRHDLVTAESVRLAVRLARLVYEAGDWTAALALASTAAKTAAEHLGAEHPVTIEARSGQGTVLFRLGRYAEAADLLRPVQQEALRTLGPHDERTLDAAYELQRVLHRLGDLAHARTLLDTVLDGRRQALGEDHVATLKTRCELLELRLAQDEFDGYTAAAGELAGECERRLGPEHLVTVWARDALARGLLRSGRGAEAEELFRRVLAGQRAGYGDDHPLVYGVLIQLSRAQYAQGKRERAAESAREVAEGRAVILGEDHPETVAARAWYTEVLATPPAPDDLVG
protein production: failed

MSLIIDGHTHVILPVEKHIKIMDEAGVDKTILFSTSIHPETAVNLRDVKKEMKKLNDVVNGKTNSMIDVRRNSIKELTNVIQAYPSRYVGFGNVPVGLSENDTNSYIEENIVNNKLVGIGELTPASGQIKSLKPIFKYSMDSGSLPIWIHAFNPLVLQDIKEIAELCKAFPKVPVILGHMGGSNWMTAVELAKEIQNLYLDTSAYFSTFVLKIVINELPLKCIFGTDMPFGDLQLSIEAIKKMSNDSYVANAVLGDNISRLLNIEGHHHHHH
protein production: not failed
